Experimental findings from patent US20250147051A1, “METHOD FOR DETECTING A TAU PROTEIN IN A SALIVA SAMPLE” (GTINVENT LIMITED, priority 2022, published 2025) are described below.

The test system of one experiment is core region tau. Kind of experiment: S1D12 immunotherapy 6-week repeat-dose mouse study, plasma tau by CA4-S1G2 core-core Simoa assay. Type of experiment: in vivo. How it is done: A total of 12 wildtype, 12 Line 1 and 12 Line 66 female mice were used in this study—Line 1 and Line 66 are transgenic mouse models of tauopathy (Melis et al., 2015). Animals were 2 months old at the beginning of the study. Mice of each genotype were injected intraperitoneally (i.p.) with either vehicle or S1D12 mAb (30 mg/kg), once per week, for six consecutive weeks.
Seven days post final dose, cardiac puncture blood sampling was performed. mice were anaesthetised using an overdose of sodium pentobarbital (i.p.) and blood was collected via cardiac puncture through a Plastipak syringe pre-rinsed with heparinised saline (10 U/mL) and transferred into a plastic vial containing lithium heparin anticoagulant. Blood samples were centrifuged to obtain plasma at 2,000×g for 5 min at 6° C.
In order to monitor the ‘treatment effect’ of S1D12 mAb, plasma tau of vehicle control and antibody treated L66^+/+ mice were assessed via a core-core homebrew Simoa® assay to investigate changes in core tau pools in these mice.

The next experiment concerns the target dGA (Homo sapiens, UniProt P10636). Kind of experiment: Biacore X100 SPR binding kinetics of anti-tau scAbs (scAb captured via HuCk), analyte dGA. To be noted: lead scAbs; for ka: Table 24; for dissociation rate constant (kd): Table 24, dissociation rate. The protocol: (§1) Surface plasmon resonance (SPR) is widely regarded as the gold standard for real time measurement of protein-protein interactions such as antibody binding. All SPR experiments were carried out using a Biacore X100 machine and HBS EP+ running buffer (GE Healthcare). A ‘capture’ method was followed for affinity measurements, where an anti-human constant kappa chain (HuCk) antibody was conjugated to the surface of a CM5 sensor chip using an amine coupling kit and scAb molecules were immobilised via their HuCk domain. Amine coupling is a very common approach for immobilising the ligand to the chip surface. The chip surface has a dextran matrix derivatised with carboxyl groups, which after activation with N-hydroxysuccinimide (NHS) and 1-ethyl-3-(3-dimethylaminopropyl) carbodiimide (EDC), form reactive succinimide esters which allows the covalent capturing of the ligand via any available primary amine groups (e.g. Lysine) on the ligand (in this case anti-HuCk antibody). The capture antibody was diluted 1/100 in 10 mM Sodium acetate buffer pH 5.0 and passed over the activated chip surface for a period of at least 420 s. Final ligand immobilisation levels over 12,000 RU were deemed to be satisfactory.
(§2) Following immobilisation, the level of each scAb to be captured was identified using the standard SPR equation with a theoretical RMax of 100 RU. Analyte MW refers to the molecular weight of hT40 or dGA/dGAE molecules, while ligand MW refers to the molecular weight of the scAbs tested. RLis the desired capture level and S refers to the stoichiometric ratio:
(§3) The scAb to be tested was added only to flow cell 2 so that flow cell 1 could act as a control to subtract any interaction with the analyte and the chip surface. Both single and multi-cycle runs were utilised using wizards developed in the Biacore X100 control software which are both accepted methods of kinetic analysis (Karlsson, R., et al. Analyzing a kinetic titration series using affinity biosensors (2006) Analytical Biochemistry 349:136-47). The multi-cycle protocol was as follows-Three start-up cycles composed of an initial capture, to the desired level, of the scAb to be tested was performed followed by a 30 s injection of glycine buffer pH 2.0 after each cycle to regenerate the chip surface. The regeneration step removed any captured scAb whilst leaving the capture antibody intact and able to repeat the capture for the next cycle. Following three start-up cycles increasing concentrations (0.15625 nM-100 nM) of the target to be tested were added to the chip surface after the desired scAb capture. The target was added for a 120 s association period and 420 s dissociation period followed by another regeneration, 30 s injection of glycine buffer pH 2.0 in between each cycle.
The single cycle kinetics protocol was similar and utilised the same level of scAb capture. Three start-up cycles were used followed by 5 increasing concentrations of the analyte (6.25 nM-100 nM) for an association period of 120 s followed by a dissociation period of 420 s for each concentration. In single cycle kinetics the regeneration step was performed only after the final analyte concentration was added. Binding responses were analysed in Biacore X100 evaluation software and data fitted to a 1:1 binding model to obtain kinetic and affinity characterisation.
A general note: Surface plasmon resonance follows binding to a sensor surface in real time, without labels.

A further experiment deals with tau. Kind of experiment: Western blot of mouse brain homogenates (WT, L66+/+, L1+/+). To be noted: 20 μg brain homogenate protein, 5-month-old WT, L1+/+ mice. How it is done:
Protein equivalent to 20 μg from each brain extract was separated using 4-20% bis-tris gels and run in 1×MES buffer. […] A clear band is visible in the lanes containing L66^+/+ samples, but no other bands are detectable (WT or L1^+/+). […] Once again, a band having relative mobility of 65 kDa is visible in the L66 sample with no other reactive bands present.
This band most likely corresponds to endogenous mouse tau which is of a similar size. In the L66^+/+ samples, a second band running at approximately 68 kDa is also detected. The presence of numerous other bands indicates proteolytic truncation of tau within brain homogenates.

In the next experiment the target is T1, dGAE aggregates (Homo sapiens, UniProt P10636).
T1 construct: host or cells: aggregated in house: 100 μM dGAE with DTT, 700 rpm, 37 °C, 24 h
T1 sequence (P10636 614-708): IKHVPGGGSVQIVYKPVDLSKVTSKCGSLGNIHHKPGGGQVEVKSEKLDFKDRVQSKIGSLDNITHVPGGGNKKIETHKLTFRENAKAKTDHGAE
The experiment in a line: Sandwich ELISA LoD for SDS Triton X-100 treated dGAE aggregates. Type of experiment: binding. The settings on record: label = detection scAb. How it is done: For aggregation, 1000 μL 100 μM dGAE+10 μL 10 mM DTT was added to a ‘LoBind’ microfuge tubes and agitated at 700 RPM/37° C. for 24 hours. Resulting sample centrifuged at 17,000×g/4° C. for 60 min and supernatant discarded to remove left over monomer. Pellet resuspended in half the original volume for future experiments and hereafter referred to as ‘aggregates’. 1 μl of aggregates was added to 1 ml of PBS and SDS was added to a final concentration of 1% (w/v). This was left to incubate on lab bench for 1 h with gentle agitation every 15 minutes. In order to neutralise the SDS effect on ELISA, Triton X-100 added to a final concentration of 3% (v/v) and mixed gently by pipetting to prevent any bubble formation. 200 μl added of this mix was to the first well of an ELISA plate coated with 1 μg/ml S1D12 mAb and blocked with 2% MPBS. Similarly aggregates treated with only SDS or Triton X-100, untreated aggregates, dGAE monomers treated with only SDS or SDS+Titon X-100 were also added to designated wells as controls. All samples were then double diluted across the plate in final volumes of 100 μl. The final column was left with no protein to act as a blank. This was allowed to stand at room temperature for 1 hour followed by the addition of detection scAb-S1G2 at 10 μg/ml. Anti-HuCk HRP labelled secondary antibody was added as described previously and ELISA data generated was represented using the graph below. In addition, limits of detection (LoD) of various core binding antibody pairing for SDS Triton X-100 treated dGAE aggregates were calculated using the above describe ELISA method and substituting capture mAbs and detection scAbs as shown in Table 30.
Background: An ELISA detects its analyte on a solid surface through an enzyme-linked reagent.

The next experiment concerns tau protein. Kind of experiment: Capture ELISA of transgenic mouse brain lysates. To be noted: S1D12 mAb capture; label = detection scAb; WT, L1, L66+/- and L66+/+. The protocol: Mouse brain lysates were prepared from wildtype, Line 1, Line 66+/+ and Line 66+/− (Melis et al., 2015, all surplus from Charles River, part of study R0144). All animals were female, 7-8 months old except Line 66+/+ which were 5 months old. […] The L1 cDNA construct (FIG. 23) contains human tau cDNA coding for amino acid residues 296-390 with a signal sequence and related sequences in a murine Thy-1 expression cassette. For brain lysate preparation, half brains were sectioned into four and the individual sections were homogenised in 400 μl of ice cold RIPA buffer (Cell signalling Technology) containing protease and phosphatase inhibitors. Total protein concentrations for individual samples were established by BCA-assay and each sample was subsequently diluted to 1 mg/ml for future experiments.
For capture ELISA, 100 μL S1D12 capture mAb was used to coat a nunc 96 well Maxisorp plate at 1 μg/ml and incubated for 1 hour at 37° C. Plate was washed as previously and then blocked for 1 hour at 37° C. in 2% MPBS. Brain homogenate samples (50 ng total protein) from each mouse type were added to the first wells and double diluted across the plate in PBS. These samples were left to incubate at RT for 1 hour. Various detection scAbs encompassing epitopes of interest were then added to the plate at 1 μg/ml and incubated for 1 h at RT. Secondary antibody used was anti-HuCk HRP and the assays were developed as described previously. Using S1D12 mAb capture and two separate scAb detectors, S-1G2 (FIG. 24A) and C-B7 (FIG. 24B), it was possible to differentiate between L1 and L66 samples and the wild type.

The next experiment concerns the target dGAE (Homo sapiens, UniProt P10636). The experiment in a line: Biacore X100 SPR binding kinetics of anti-tau scAbs (scAb captured via HuCk), analyte dGAE. To be noted: lead scAbs. The protocol: as §1, §2
as §3, with “Following three start-up cycles increasing concentrations (0.15625 nM-100 nM) of the target to be tested were added to the chip surface after the desired scAb capture. The target was added for a 120 s association period and 420 s dissociation period followed by another regeneration, 30 s injection of glycine buffer pH 2.0 in between each cycle.” left out
The single cycle kinetics protocol was similar and utilised the same level of scAb capture. […] Binding responses were analysed in Biacore X100 evaluation software and data fitted to a 1:1 binding model to obtain kinetic and affinity characterisation.

Entries after “also recorded” stand apart in the source; their conditions may differ.

Chain of dGA (P10636 614-707): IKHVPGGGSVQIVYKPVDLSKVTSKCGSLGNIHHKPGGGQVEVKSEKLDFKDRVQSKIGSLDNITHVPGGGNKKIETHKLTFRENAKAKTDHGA
Chain of dGAE (P10636 614-708): as the sequence (P10636 614-708) above

B1: S1D12: anti-tau binding molecule defined by its CDRs; scAb sequence SEQ ID NO: 32 (protein)
scFv: QVQLQESGPSLVKPSQTLSLTCTVSGFSLNNNAVGWVRQAPGKVPESLVGCSSDGTCYYNSALKSRLDITRDTSKNQISLSLSSVTTDDAAVYYCTRGHYSIYGYDYLGTIDYWGPGLLVTVSSEGKSSGASGESKVDDQAVLTQPSSVSGSLGQRVSITCSGSSSNVGGGNSVGWYQHLPGSGLKTIIYDTNSRPSGVPDRFSGSRSGNTATLTINSLQAEDEGDYYCVTGDSTTHDDLVGSGTRLTVLG
modifications: S1D12 amino acid sequence
Turning to B1, the “plasma tau, L66+/+ mice with S1D12 treatment” value in the experiment with core region tau (30 mg/kg i.p. once per week for six weeks, CA4-S1G2 Simoa) is 3.52 (0.20) ng/ml. Also, in the experiment on core region tau (CA4-S1G2 pairing, n=5 or 6), the “increase of core region tau in plasma vs vehicle group, L1” value is “more than 100 fold”; the “increase of core region tau in plasma vs vehicle group, L66” value is “more than a threefold increase”; the “increase of core region tau in plasma vs vehicle group, wild-type” value is “less than a two-fold increase”. In addition, in the experiment with dGA, the ka worked out at 1.21e+06 M⁻¹ s⁻¹ and the “dissociation rate constant (kd)” value was determined as 0.000418 s⁻¹. The Western blot reactivity entry in the experiment with tau is “A band is detected in each sample (WT, L66^+/+ and L1^+/+)”.

B2: S1G2: anti-tau binding molecule defined by its CDRs; scAb sequence SEQ ID NO: 81 (protein)
scFv: QVQLQESGPSLVKPSQTLSLTCTVSGFSLTSNSVGWVRQAPGKAPEWVAGIDTDGEEGYNPALNSRLSITRDTSKSQVSLSLSSVTSEDTAVYYCGRSYRADGLAYGYVQAIDYWGPGLLVTVSSEGKSSGASGESKVDDQAVVTQPSSVSGSLGQRVSITCSGSFIGISSVGWFQQLPGSGLRTIIVASDGRPSGVPDRFSMSKSGNTATLTISSLQAEDEADYFCGSSDRTPYTGVFGSGTRLTVLG
modifications: S1G2 amino acid sequence
In the case of B2, in the experiment with dGAE aggregates, the “LoD, 423 mAb capture, +SDS Triton dGAE agg.” value was 30 ng/mL; the “LoD, S1D12 mAb capture, +SDS Triton dGAE agg.” value is given as “approximately 2 ng/ml”; the “LoD, direct immobilisation of dGAE aggregates, +SDS Triton dGAE agg.” value came out at 16 ng/mL. Besides, the “detection of tau in mouse brain homogenate” value in the experiment on tau protein is reported as “tau protein was detected in 50 μg of total brain protein in all four different sample types”. Besides, in the experiment with dGA, the ka was 783000 M⁻¹ s⁻¹ and the “dissociation rate constant (kd)” value is 0.0003499 s⁻¹. Also, in the experiment on tau, the Western blot reactivity entry is “A band is detected in each sample (WT, L66^+/+ and L1^+/+); also recorded: able to detect the pathologic 10-kDa tau fragment”.

B3: E1E8: anti-tau clone, SEQ ID NO: 250 (protein)
scFv: QVQLQESGPSLVKPSQTLSLTCTVSGFSLTDWGVAWVRQAPGKALEWLGTMRSGGTTDDNPALKSRLSITRDTSKSQVSLSLSSVTTEDMAMYYCARGYLSGVHYAWGRGLLVTVSSEGKSSGASGESKVDDQAVLTQPSSVSGSLGQSVSITCSGSSSNVGDGRYVSWFQQVPGSAPKLLIYDTTSRASGVPDRFSGSRSGNTATLIITSLQAEDEADYYCASIDSGNNLLFGSGTRLTVLG
modifications: E1E8 amino acid sequence
With B3, the ka with dGAE (Table 24) worked out at 153500 M⁻¹ s⁻¹. Moreover, the “dissociation rate constant (koff)” value with dGAE (Table 24, dissociation rate) was 0.0014 s⁻¹.
